Measurements reported in EP4628512A1 (Innovent Biologics (Suzhou) Co., Ltd., dated 2025).

T1: human VEGFC (R&D) (human, UniProt P49767 103-227)
T1 construct: also called hVEGFC; recombinant human VEGFC protein
T1 sequence (looked up): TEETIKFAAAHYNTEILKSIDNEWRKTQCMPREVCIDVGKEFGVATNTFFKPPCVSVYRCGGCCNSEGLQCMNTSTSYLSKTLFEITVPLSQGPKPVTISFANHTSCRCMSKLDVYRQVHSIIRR

T2: human Ang2 (Beijing Sino Biological) (human, UniProt O15123 19-496, limits assumed)
T2 construct: Antigen of the BLI and SPR experiments; also called angiopoietin 2; ANGPT2
T2 sequence (looked up): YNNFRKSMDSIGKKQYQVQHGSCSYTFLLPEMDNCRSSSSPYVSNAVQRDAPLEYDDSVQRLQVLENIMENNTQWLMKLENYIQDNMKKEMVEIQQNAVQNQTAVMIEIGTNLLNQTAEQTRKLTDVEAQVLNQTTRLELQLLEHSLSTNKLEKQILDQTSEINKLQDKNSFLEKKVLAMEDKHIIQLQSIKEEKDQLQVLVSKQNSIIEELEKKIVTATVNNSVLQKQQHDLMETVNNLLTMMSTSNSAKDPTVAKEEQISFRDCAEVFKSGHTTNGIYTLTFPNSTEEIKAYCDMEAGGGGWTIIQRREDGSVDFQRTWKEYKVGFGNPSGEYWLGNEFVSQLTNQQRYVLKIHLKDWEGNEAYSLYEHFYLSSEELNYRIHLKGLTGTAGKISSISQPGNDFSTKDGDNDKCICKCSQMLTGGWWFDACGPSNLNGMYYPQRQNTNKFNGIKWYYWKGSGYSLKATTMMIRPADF


Columns and labels:
human VEGF165 (R&D) [1] = molecular target: T3, human VEGF165 (R&D) (human, UniProt P15692-4 27-191); assay: BLI (ForteBio), bivalent binding, 30 C
T3 construct: also called VEGFA; human VEGFA
T3 sequence (P15692 other isoform, or with tags, fused parts or gaps limits assumed): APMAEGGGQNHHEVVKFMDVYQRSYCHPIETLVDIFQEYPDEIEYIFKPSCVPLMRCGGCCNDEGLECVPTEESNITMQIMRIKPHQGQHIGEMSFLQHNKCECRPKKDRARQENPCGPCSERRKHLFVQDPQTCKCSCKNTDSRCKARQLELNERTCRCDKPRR

human VEGFC (R&D) [2] = molecular target: T1, human VEGFC (R&D); assay: BLI (ForteBio), bivalent binding, 30 C
[3] = molecular target: T2, human Ang2 (Beijing Sino Biological); assay: BLI (ForteBio), bivalent binding, 30 C
human VEGFC (R&D) [4] = molecular target: T1, human VEGFC (R&D); assay: BLI (ForteBio), bivalent binding, 30 C; * beyond the limit of detection
[5] = molecular target: T2, human Ang2 (Beijing Sino Biological); assay: SPR (Biacore T200), CM5 chip, bivalent binding, 1:1 binding model
human VEGF165 (R&D) [6] = molecular target: T3, human VEGF165 (R&D); assay: BLI (ForteBio), bivalent binding, 30 C; * beyond the limit of detection
[7] = molecular target: T2, human Ang2 (Beijing Sino Biological); assay: as above
human VEGFC (R&D) [8] = molecular target: T1, human VEGFC (R&D); assay: SPR (Biacore T200), CM5 chip, bivalent binding, 1:1 binding model
human VEGF165 (R&D) [9] = molecular target: T3, human VEGF165 (R&D); assay: SPR (Biacore T200), CM5 chip, 1:1 binding model

Kd (human VEGF165 (R&D) [1]) | koff (human VEGF165 (R&D) [1]) | kon (human VEGF165 (R&D) [1]) | Kd (human VEGFC (R&D) [2]) | koff (human VEGFC (R&D) [2]) | kon (human VEGFC (R&D) [2]) | Kd [3] | koff [3] | kon [3] | koff (human VEGFC (R&D) [4]) | Kd [5] | koff [5] | kon [5] | koff (human VEGF165 (R&D) [6]) | koff [7] | Kd (human VEGFC (R&D) [8]) | koff (human VEGFC (R&D) [8]) | kon (human VEGFC (R&D) [8]) | Kd (human VEGF165 (R&D) [9]) | koff (human VEGF165 (R&D) [9]) | Binder | other results
0.609 nM | 0.000293 s⁻¹ | 481000 M⁻¹ s⁻¹ | 0.885 nM | 0.000209 s⁻¹ | 236000 M⁻¹ s⁻¹ | 0.783 nM | 0.00051 s⁻¹ | 652000 M⁻¹ s⁻¹ |  |  |  |  |  |  |  |  |  |  |  | IAR044-040 (other, Trispecific fusion protein: VEGFA mini-Trap, hinge linker, anti-Ang2 VHH, linker, anti-VEGFC VHH) SDTGRPFVEMYSEIPEIIHMTEGRELVIPCRVTSPNITVTLKKFPLDTLIPDGKRIIWDSRKGFIISNATYKEIGLLTCEATVNGHLYKTNYLTHRQTNTIIDVVLSPSHGIELSVGEKLVLNCTARTELNVGIDFNWEYPSSKHQHKKLVNRDLKTQSGSEMKKFLSTLTIDGVTRSDQGLYTCAASSGLMTKKNSTFVRVHEKEKTHTCPPCPPCGGGGGGGGGGEVQLLESGGGLVQPGGSLRLSCAASGFALDYYAIGWFRQAPGKGLEGVSCISSGEGSTYYADSVKGRFTISRDNSKNTVYLQMNSLRAEDTAVYYCATDSRGDDVACEGLRRNEYDYWGQGTLVTVSSGGGGGGGGGGEVQLVESGGGLVQPGGSLRLSCAASGSSFSPYAMGWYRQAPGKQRELVSATSEGGFTLYADSVKGRFTISRDNSKNTVYLQMNSLRAEDTAVYYCYMHWRGSDPENYWGQGTQVTVSS | 
≤ 0.517 nM |  | 387000 M⁻¹ s⁻¹ | ≤ 1.01 nM |  | 197000 M⁻¹ s⁻¹ | ≤ 0.22 nM |  | 908000 M⁻¹ s⁻¹ | ≤ 0.0002 s⁻¹ | 0.012 nM | 1.92e-05 s⁻¹ | 1.63e+06 M⁻¹ s⁻¹ | ≤ 0.0002 s⁻¹ | ≤ 0.0002 s⁻¹ | < 0.276 nM | < 1e-05 s⁻¹ | 36200 M⁻¹ s⁻¹ | 0.203 nM | 7.75e-05 s⁻¹ | IAR044-032 (other, No Fc; also called anti-VEGFA/VEGFC/Ang2 multi-specific fusion protein) EVQLLESGGGLVQPGGSLRLSCAASGFALDYYAIGWFRQAPGKGLEGVSCISSGEGSTYYADSVKGRFTISRDNSKNTVYLQMNSLRAEDTAVYYCATDSRGDDVACEGLRRNEYDYWGQGTLVTVSSGGGGGGGGGGSDTGRPFVEMYSEIPEIIHMTEGRELVIPCRVTSPNITVTLKKFPLDTLIPDGKRIIWDSRKGFIISNATYKEIGLLTCEATVNGHLYKTNYLTHRQTNTIIDVVLSPSHGIELSVGEKLVLNCTARTELNVGIDFNWEYPSSKHQHKKLVNRDLKTQSGSEMKKFLSTLTIDGVTRSDQGLYTCAASSGLMTKKNSTFVRVHEKEKTHTCPPCPPCGGGGGGGGGGEVQLVESGGGLVQPGGSLRLSCAASGSSFSPYAMGWYRQAPGKQRELVSATSEGGFTLYADSVKGRFTISRDNSKNTVYLQMNSLRAEDTAVYYCYMHWRGSDPENYWGQGTQVTVSS | kon (human VEGF165 (R&D) [9]): 382000 M⁻¹ s⁻¹
≤ 0.515 nM |  | 389000 M⁻¹ s⁻¹ | ≤ 1.04 nM |  | 193000 M⁻¹ s⁻¹ | ≤ 0.206 nM |  | 973000 M⁻¹ s⁻¹ | ≤ 0.0002 s⁻¹ | 0.00932 nM | 1.76e-05 s⁻¹ | 1.89e+06 M⁻¹ s⁻¹ | ≤ 0.0002 s⁻¹ | ≤ 0.0002 s⁻¹ | < 0.234 nM | < 1e-05 s⁻¹ | 42800 M⁻¹ s⁻¹ | 0.151 nM | 6.01e-05 s⁻¹ | IAR044-030 (other, No Fc; also called anti-VEGFA/VEGFC/Ang2 multi-specific fusion protein) EVQLLESGGGLVQPGGSLRLSCAASGFALDYYAIGWFRQAPGKGLEGVSCISSGEGSTYYADSVKGRFTISRDNSKNTVYLQMNSLRAEDTAVYYCATDSRGDDVACEGLRRNEYDYWGQGTLVTVSSGGGGGGGGGGSDTGRPFVEMYSEIPEIIHMTEGRELVIPCRVTSPNITVTLKKFPLDTLIPDGKRIIWDSRKGFIISNATYKEIGLLTCEATVNGHLYKTNYLTHRQTNTIIDVVLSPSHGIELSVGEKLVLNCTARTELNVGIDFNWEYPSSKHQHKKLVNRDLKTQSGSEMKKFLSTLTIDGVTRSDQGLYTCAASSGLMTKKNSTFVRVHEKESKYGPPCPPCPPCGGGGGGGGGGEVQLVESGGGLVQPGGSLRLSCAASGSSFSPYAMGWYRQAPGKQRELVSATSEGGFTLYADSVKGRFTISRDNSKNTVYLQMNSLRAEDTAVYYCYMHWRGSDPENYWGQGTQVTVSS | kon (human VEGF165 (R&D) [9]): 399000 M⁻¹ s⁻¹
0.582 nM | 0.000272 s⁻¹ | 468000 M⁻¹ s⁻¹ | 1.01 nM | 0.000227 s⁻¹ | 225000 M⁻¹ s⁻¹ | 0.705 nM | 0.000427 s⁻¹ | 606000 M⁻¹ s⁻¹ |  |  |  |  |  |  |  |  |  |  |  | IAR044-039 (other, Trispecific fusion protein: VEGFA mini-Trap, hinge linker, anti-Ang2 VHH, linker, anti-VEGFC VHH) SDTGRPFVEMYSEIPEIIHMTEGRELVIPCRVTSPNITVTLKKFPLDTLIPDGKRIIWDSRKGFIISNATYKEIGLLTCEATVNGHLYKTNYLTHRQTNTIIDVVLSPSHGIELSVGEKLVLNCTARTELNVGIDFNWEYPSSKHQHKKLVNRDLKTQSGSEMKKFLSTLTIDGVTRSDQGLYTCAASSGLMTKKNSTFVRVHEKESKYGPPCPPCPPCGGGGGGGGGGEVQLLESGGGLVQPGGSLRLSCAASGFALDYYAIGWFRQAPGKGLEGVSCISSGEGSTYYADSVKGRFTISRDNSKNTVYLQMNSLRAEDTAVYYCATDSRGDDVACEGLRRNEYDYWGQGTLVTVSSGGGGGGGGGGEVQLVESGGGLVQPGGSLRLSCAASGSSFSPYAMGWYRQAPGKQRELVSATSEGGFTLYADSVKGRFTISRDNSKNTVYLQMNSLRAEDTAVYYCYMHWRGSDPENYWGQGTQVTVSS | 
0.668 nM | 0.0003 s⁻¹ | 450000 M⁻¹ s⁻¹ | ≤ 0.92 nM |  | 217000 M⁻¹ s⁻¹ | 0.475 nM | 0.000283 s⁻¹ | 597000 M⁻¹ s⁻¹ | ≤ 0.0002 s⁻¹ |  |  |  |  |  |  |  |  |  |  | IAR044-038 (other, Trispecific fusion protein: VEGFA mini-Trap, hinge linker, anti-Ang2 VHH, linker, anti-VEGFC VHH) SDTGRPFVEMYSEIPEIIHMTEGRELVIPCRVTSPNITVTLKKFPLDTLIPDGKRIIWDSRKGFIISNATYKEIGLLTCEATVNGHLYKTNYLTHRQTNTIIDVVLSPSHGIELSVGEKLVLNCTARTELNVGIDFNWEYPSSKHQHKKLVNRDLKTQSGSEMKKFLSTLTIDGVTRSDQGLYTCAASSGLMTKKNSTFVRVHEKEPKSSPPCPPCPAPCGGGGGGGGGGEVQLLESGGGLVQPGGSLRLSCAASGFALDYYAIGWFRQAPGKGLEGVSCISSGEGSTYYADSVKGRFTISRDNSKNTVYLQMNSLRAEDTAVYYCATDSRGDDVACEGLRRNEYDYWGQGTLVTVSSGGGGGGGGGGEVQLVESGGGLVQPGGSLRLSCAASGSSFSPYAMGWYRQAPGKQRELVSATSEGGFTLYADSVKGRFTISRDNSKNTVYLQMNSLRAEDTAVYYCYMHWRGSDPENYWGQGTQVTVSS | 
